Article PMC6526958

Tests used:
[1] = substrate: Nc1ncnc2c1ncn2[C@@H]1O[C@H](COP(=O)(O)O)[C@@H](O)[C@H]1O; test: radiometric CD73 assay, membrane preparations of MDA-MB-231 cells; format: biochemical, human; settings: other: substrate AMP; membrane preparation; 37.0 °C
[2] = substrate: Nc1ncnc2c1ncn2[C@@H]1O[C@H](COP(=O)(O)O)[C@@H](O)[C@H]1O; test: purified protein, by the assay type; format: biochemical, human; settings: other: substrate AMP

Protein | Km [1] | Km [2]
membrane-bound CD73 (MDA-MB-231 membrane preparation) (Homo sapiens) (protein) WELTILHTNDVHSRLEQTSEDSSKCVNASRCMGGVARLFTKVQQIRRAEPNVLLLDAGDQYQGTIWFTVYKGAEVAHFMNALRYDAMALGNHEFDNGVEGLIEPLLKEAKFPILSANIKAKGPLASQISGLYLPYKVLPVGDEVVGIVGYTSKETPFLSNPGTNLVFEDEITALQPEVDKLKTLNVNKIIALGHSGFEMDKLIAQKVRGVDVVVGGHSNTFLYTGNPPSKEVPAGKYPFIVTSDDGRKVPVVQAYAFGKYLGYLKIEFDERGNVISSHGNPILLNSSIPEDPSIKADINKWRIKLDNYSTQELGKTIVYLDGSSQSCRFRECNMGNLICDAMINNNLRHTDEMFWNHVSMCILNGGGIRSPIDERNNGTITWENLAAVLPFGGTFDLVQLKGSTLKKAFEHSVHRYGQSTGEFLQVGGIHVVYDLSRKPGDRVVKLDVLCTKCRVPSYDPLKMDEVYKVILPNFLANGGDGFQMIKDELLRHDSGDQDINVVSTYISKMKVIYPAVEGRIKFSTGSHCHGSFSLIFLSLWAVIFVLYQ | 14.8 ± 2.1 µM | –
recombinant soluble human CD73 (Homo sapiens) (protein) ELTILHTNDVHSRLEQTSEDSSKCVNASRCMGGVARLFTKVQQIRRAEPNVLLLDAGDQYQGTIWFTVYKGAEVAHFMNALRYDAMALGNHEFDNGVEGLIEPLLKEAKFPILSANIKAKGPLASQISGLYLPYKVLPVGDEVVGIVGYTSKETPFLSNPGTNLVFEDEITALQPEVDKLKTLNVNKIIALGHSGFEMDKLIAQKVRGVDVVVGGHSNTFLYTGNPPSKEVPAGKYPFIVTSDDGRKVPVVQAYAFGKYLGYLKIEFDERGNVISSHGNPILLNSSIPEDPSIKADINKWRIKLDNYSTQELGKTIVYLDGSSQSCRFRECNMGNLICDAMINNNLRHTDEMFWNHVSMCILNGGGIRSPIDERNNGTITWENLAAVLPFGGTFDLVQLKGSTLKKAFEHSVHRYGQSTGEFLQVGGIHVVYDLSRKPGDRVVKLDVLCTKCRVPSYDPLKMDEVYKVILPNFLANGGDGFQMIKDELLRHDSGDQDINVVSTYISKMKVIYPAVEGRIKFS | – | 17.0 ± 2.1 µM
